Reference: US20240279331A1 (University of California, published 2024)

Columns and labels:
[1] = target: T1, NCR1 as expressed on NK cells (human, UniProt O76036 22-304); experiment: flow cytometry, Fab titration on peripheral blood NK cells (FIG. S6)
T1 construct: whole, on cells; Primary human peripheral blood NK cells; NKL cells stably transduced with NCR1 in the bispecific cytotoxicity assay; also called peripheral blood NK cells; NCR1+ NKL cells
Experimental: To evaluate the affinity of the selected antibodies for NK cells, we titrated the nine Fab clones on peripheral blood NK cells.
(§1) Titrations were performed on primary human NK cells or tetracycline induced overexpression cell lines as indicated. When tetracycline induced overexpression cell lines were used, cells were dosed with 10 μg/mL tetracycline for 2 days prior to staining. The starting concentration of each Fab or bispecific antibody was 1 μM, and serial 1:5 dilutions were performed. Antibodies were incubated with cells for 1 hr at 4° C., washed 2 times in 3% BSA in PBS pH 7.4, and stained for 30 min with an Alexafluor-647 conjugated goat anti-human IgG F(ab′)2 fragment (Jackson ImmunoResearch Laboratories) at a 1:50 dilution. After an additional 3 washes, cells were fixed and fluorescence was quantified using a CytoFLEX (Beckman Coulter). All flow cytometry data were analyzed using FlowJo software.

[2] = target: T2, NCR1 extracellular domain fused to a generic transmembrane domain, on tetracycline-inducible FlpIn cells (human, UniProt O76036 22-258); experiment: flow cytometry, Fab on tetracycline-inducible cells over-expressing the ECD (FIG. S5)
T2 construct: extracellular domain; HEK293 FlpIn cells, expression on tetracycline addition; also called NCR1 over expression cell line; not shown: transmembrane domain of platelet-derived growth factor (so in the source) with a HA tag
Experimental: (§2) To investigate the specificity of both activating and non-functional antibodies for their receptor targets, we developed a tetracycline-inducible cell line for each protein target—CD16, NCR1, NCR3, CD244, TNFRSF9, and TNFSF4. The ECDs of these proteins were fused to a generic transmembrane domain and were expressed upon tetracycline addition.
as §1

[3] = target: T3, CD244 extracellular domain fused to a generic transmembrane domain, on tetracycline-inducible FlpIn cells (UniProt Q9BZW8 22-229); experiment: flow cytometry, Fab on tetracycline-inducible cell lines over-expressing each ECD (FIG. S5)
T3 construct: extracellular domain; not shown: transmembrane domain of platelet-derived growth factor (so in the source) with a HA tag
T3 sequence (looked up): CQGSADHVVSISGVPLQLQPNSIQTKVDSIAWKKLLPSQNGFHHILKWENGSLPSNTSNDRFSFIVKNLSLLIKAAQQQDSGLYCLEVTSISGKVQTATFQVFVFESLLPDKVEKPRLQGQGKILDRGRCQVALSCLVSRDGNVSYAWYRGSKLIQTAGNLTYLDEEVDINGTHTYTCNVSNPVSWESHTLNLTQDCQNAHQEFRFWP
Experimental: as §2, §1

[4] = target: T4, TNFSF4 extracellular domain fused to a generic transmembrane domain, on tetracycline-inducible FlpIn cells (UniProt P23510 51-183); experiment: as above
T4 construct: extracellular domain; also called OX40L; not shown: transmembrane domain of platelet-derived growth factor (so in the source) with a HA tag
T4 sequence (looked up): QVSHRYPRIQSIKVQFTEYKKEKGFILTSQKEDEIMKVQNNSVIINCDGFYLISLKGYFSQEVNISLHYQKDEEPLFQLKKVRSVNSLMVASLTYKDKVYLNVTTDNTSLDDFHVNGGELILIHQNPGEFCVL
Experimental: as §2, §1

[5] = target: T5, NCR3 extracellular domain fused to a generic transmembrane domain, on tetracycline-inducible FlpIn cells (human, UniProt O14931 19-135); experiment: as above
T5 construct: extracellular domain; HEK293 FlpIn cells, expression on tetracycline addition; also called NCR3 over expression cell line; not shown: transmembrane domain of platelet-derived growth factor (so in the source) with a HA tag
T5 sequence (looked up): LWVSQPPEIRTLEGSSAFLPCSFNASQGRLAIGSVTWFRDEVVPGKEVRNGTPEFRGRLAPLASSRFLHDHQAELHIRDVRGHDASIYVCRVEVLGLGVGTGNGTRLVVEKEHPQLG
Experimental: as §2, §1

[6] = target: T6, CD16 extracellular domain fused to a generic transmembrane domain, on tetracycline-inducible FlpIn cells (human, UniProt P08637 17-208); experiment: as above
T6 construct: extracellular domain; HEK293 FlpIn cells, expression on tetracycline addition; also called CD16 over expression cell line; CD16A; not shown: transmembrane domain of platelet-derived growth factor (so in the source) with a HA tag
Experimental: as §2, §1

[7] = target: T7, TNFRSF9 extracellular domain fused to a generic transmembrane domain, on tetracycline-inducible FlpIn cells (UniProt Q07011 24-186); experiment: as above
T7 construct: extracellular domain; also called 4-1BB; not shown: transmembrane domain of platelet-derived growth factor (so in the source) with a HA tag
Experimental: as §2, §1

[8] = target: T8, NCR1 extracellular domain TEV-cleavable Fc-fusion, biotinylated (human, UniProt O76036 22-258, biotinylated (site not stated)); experiment: Fab-phage selection and Fab-phage ELISA on biotinylated ECD Fc-fusion (antigen column of Table S1)
T8 construct: extracellular domain; Antigen of the phage selections and Fab-phage ELISAs; not shown: TEV cleavage site and Fc domain
Experimental: To generate antibodies against these antigens, we expressed the extracellular domains (ECDs) of these proteins as TEV-cleavable Fc-fusions and performed Fab-phage display selections to enrich for high affinity antibody binders (FIG. S1), as previously described [Hornsby, M. et al., Mol Cell Proteomics. 14(10), 2833-2847 (2015)]. After each selection, Fab-phage ELISAs were performed to determine the relative affinity and selectivity of these binders for their antigen targets (FIG. S2).
TEV-cleavable Fc-fusion proteins were expressed and biotinylated in Expi293F cells using the standard expression protocol. Media were harvested after 4 days of expression and protein was purified by protein A affinity chromatography. Phage selections were performed according to previously established protocols1 with the Fab-phage Library E2. Non-specific binders were depleted from the library by incubating the phage pool with Fc-domain immobilized on streptavidin beads. Fab phage were selected using biotinylated Fc-fusions that were captured on streptavidin-coated magnetic beads, and were released through TEV elution. Each selection consists of four rounds. With each round, decreasing amounts of Fc-fusions (1 μM, 100 nM, 10 nM, and […]) were used. ELISAs were performed for 96 individual Fab-phage clones from the third or fourth rounds of selection to evaluate for affinity and selectivity.
ELISAs were performed as previously described1. In brief, Maxisorp plates were coated with 10 μg/mL of Neutravidin overnight at 4° C. Biotinylated target antigen (20 nM) was captured on the Neutravidin coated plates for 30 min, and then exposed to a 1:5 dilution of phage supernatants for 30 min. Bound phage were detected via a horseradish-peroxidase-conjugated anti-phage monoclonal antibody (GE Lifesciences).

T1 sequence (O76036 22-304): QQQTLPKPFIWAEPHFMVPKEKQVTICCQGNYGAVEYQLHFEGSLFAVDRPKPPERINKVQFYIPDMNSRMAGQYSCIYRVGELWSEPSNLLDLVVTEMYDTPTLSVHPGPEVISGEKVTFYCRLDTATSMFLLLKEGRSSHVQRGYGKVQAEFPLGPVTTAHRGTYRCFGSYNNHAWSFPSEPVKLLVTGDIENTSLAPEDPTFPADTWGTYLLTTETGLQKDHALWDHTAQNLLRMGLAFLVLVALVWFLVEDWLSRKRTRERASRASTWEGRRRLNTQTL
T6 sequence (P08637 17-208): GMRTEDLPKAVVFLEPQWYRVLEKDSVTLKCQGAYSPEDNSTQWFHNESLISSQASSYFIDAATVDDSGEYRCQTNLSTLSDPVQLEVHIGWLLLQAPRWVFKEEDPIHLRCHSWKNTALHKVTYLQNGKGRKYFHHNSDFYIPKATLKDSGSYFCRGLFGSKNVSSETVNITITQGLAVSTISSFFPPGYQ
T8 sequence (O76036 22-258): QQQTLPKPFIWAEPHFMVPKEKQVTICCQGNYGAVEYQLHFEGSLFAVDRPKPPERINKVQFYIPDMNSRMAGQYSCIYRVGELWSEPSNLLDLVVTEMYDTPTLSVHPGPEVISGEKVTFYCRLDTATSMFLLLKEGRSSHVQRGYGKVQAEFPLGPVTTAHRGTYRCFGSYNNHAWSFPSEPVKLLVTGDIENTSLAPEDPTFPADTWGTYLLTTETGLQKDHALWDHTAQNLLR
T2 sequence (O76036 22-258): as above

B1: NCR1.11 Fab (Fab)
heavy: EVQLVESGGGLVQPGGSLRLSCAASGFNVYYSYIHWVRQAPGKGLEWVASISSYYGSTYYADSVKGRFTISADTSKNTAYLQMNSLRAEDTAVYYCARSRYLQDYWSSWWVSWYGLDYWGQGTLVTVSSASTKGPSVFPLAPSSKSTSGGTAALGCLVKDYFPEPVTVSWNSGALTSGVHTFPAVLQSSGLYSLSSVVTVPSSSLGTQTYICNVNHKPSNTKVDKKVEPKSCDKTHT
light: DIQMTQSPSSLSASVGDRVTITCRASQSVSSAVAWYQQKPGKAPKLLIYSASSLYSGVPSRFSGSRSGTDFTLTISSLQPEDFATYYCQQSSSSLITFGQGTKVEIKRTVAAPSVFIFPPSDSQLKSGTASVVCLLNNFYPREAKVQWKVDNALQSGNSQESVTEQDSKDSTYSLSSTLTLSKADYEKHKVYACEVTHQGLSSPVTKSFNRGEC
notes: also called anti-NCR1 Fab #27
[1]
  binding result: binds
[2]
  binding result: binds
[3]
  binding result: no binding
[4]
  binding result: no binding
[5]
  binding result: no binding
[6]
  binding result: no binding
[7]
  binding result: no binding
[8]
  binding result: binds
